Target: cation-independent mannose-6-phosphate receptor (CIMPR)
Test: CIMPR affinity chromatography with M6P elution gradient; spent cell culture medium before AEX product capture

**Q.** Which percent able to bind to the CIMPR does the source give for “recombinant human α-galactosidase A (rhα-Gal A) (from UniProt P06280 32-429) (enzyme)” here?
**A.** 80%

From patent EP3436577B1
